The text below walks through data of patent publication US20210054097A1 (Novo Nordisk, published 2021).

Where a chain is given by its changes, count along the chain named. Ends that are not written are not given here.

The labels stand for the following.
T1: FX activation peptide 12-mer PTENPFDLLDFN (human)
T1 peptide: PTENPFDLLDFN-biotin

T2: FX activation peptide 12-mer NQTQPERGDNNL (human)
T2 peptide: NQTQPERGDNNL-biotin

T3: FX activation peptide 12-mer GEAPDSITWKPY (human)
T3 peptide: GEAPDSITWKPY-biotin

T4: FX activation peptide 12-mer PDSITWKPYDAA (human)
T4 peptide: PDSITWKPYDAA-biotin

T5: FX activation peptide 12-mer SSSGEAPDSITW (human)
T5 peptide: SSSGEAPDSITW-biotin

T6: FX activation peptide 12-mer VAQATSSSGEAP (human)
T6 peptide: VAQATSSSGEAP-biotin

T7: FX activation peptide 12-mer DSITWKPYDAAD (human)
T7 peptide: DSITWKPYDAAD-biotin

T8: FX activation peptide 12-mer AADLDPTENPFD (human)
T8 peptide: AADLDPTENPFD-biotin

B1: Nb 729A04 (VHH)
VHH: EVQLVESGGGVVQPGGSLRLSCAASGFTFSDYAMSWVRQAPGKGLEWVSGITSGGGRTYYADSVKGRFTISRDNSKNTLYLQMNSLRPEDTALYYCAAVRTLGLRGSYDYWGQGTLVTVSS
notes: monovalent Nanobody; not shown: C-terminal FLAG3 and HIS6 tag
B2: Nb 730C03 (VHH)
VHH: B1 VHH with A23V, G55S, L79V, V99A, R100I, T101L, L102R, L104Y, G106K, S107T
notes: monovalent Nanobody; also called Nb 730003; not shown: C-terminal FLAG3 and HIS6 tag
B3: Nb 729C08 (VHH)
VHH: EVQLVESGGGVVQPGGSLRLSCAASGFTFSDYAMSWVRQAPGKGLEWVSGITGGGRTYYADSVKGRFTISRDNSKNTLYLQMNSLRPEDTALYYCAAAILTRTRRTYDYWGQGTLVTVSS
notes: monovalent Nanobody; also called Nb 729008; not shown: C-terminal FLAG3 and HIS6 tag
B4: Nb 501A02 (VHH)
VHH: EVQLVESGGGLVQPGGSLRLSCAASGFTFSNYEMSWVRQAPGKGLEWVSDIGSGGGVSTYYADSVKGRFTISRDNAKNTLYLQMNSLKPEDTAMYYCARGWTYGSDGMDYWGKGTLVTVSS
notes: monovalent control Nanobody; also called control Nanobody; not shown: C-terminal FLAG3 and HIS6 tag
B5: Nb 701C06 (VHH)
VHH: EVQLVESGGGVVQPGGSLRLSCAASGRTFSTYAMGWFRQAPGKEREFVAAISRRGGRTYYADSVKGRFTISRDNSKNTVYLQMNSLRPEDTALYYCAADATARDGLLDYWGQGTLVTVSS
notes: as for B1
B6: Nb 701D07 (VHH)
VHH: EVQLVESGGGVVQPGGSLRLSCAASGGTLSRYAMGWFRQAPGKEREFVAAITRRGSRTYYADSVKGRFTISRDNSKNTVYLQMNSLRPEDTALYYCAADLAPGDYALDYWGQGTLVTVSS
notes: as for B1
B7: Nb 701B09 (VHH)
VHH: B5 VHH with R53W, R54S, G56S, A102P, R103A, D104N, L106E
notes: monovalent Nanobody; also called Nb 701609; not shown: C-terminal FLAG3 and HIS6 tag

The target of one assay is T9, human plasma-derived Factor X zymogen (human, UniProt P00742 41-179; P00742 183-488).
T9 construct: Plasma-derived, bought (Haematologic Technologies); also called FX; human FX
T9 sequence (P00742 41-179, chain 1 of 2): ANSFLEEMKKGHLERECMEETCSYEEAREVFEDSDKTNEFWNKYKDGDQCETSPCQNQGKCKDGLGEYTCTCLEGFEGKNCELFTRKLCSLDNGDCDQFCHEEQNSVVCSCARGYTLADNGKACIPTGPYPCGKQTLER
T9 sequence (P00742 183-488, chain 2 of 2): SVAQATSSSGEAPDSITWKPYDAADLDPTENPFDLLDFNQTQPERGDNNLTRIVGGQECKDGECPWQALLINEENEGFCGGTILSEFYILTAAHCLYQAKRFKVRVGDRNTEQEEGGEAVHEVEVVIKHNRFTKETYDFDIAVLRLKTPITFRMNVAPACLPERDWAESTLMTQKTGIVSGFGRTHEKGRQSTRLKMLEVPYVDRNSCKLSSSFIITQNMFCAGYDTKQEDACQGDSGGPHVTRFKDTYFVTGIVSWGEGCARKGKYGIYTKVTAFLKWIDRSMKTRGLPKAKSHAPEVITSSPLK
Briefly: apparent KD fitted from FXa generation assay. The procedure: The ability of the monovalent anti-FX Nanobody® (Nb) to promote FIXa-mediated FX-activation was determined in the presence of a procoagulant phospholipid membrane according to the principles described by Scheiflinger et al. (2008) J Thromb Haemost, 6:315-322. A Fab of mAb 13F62 (IgG1 isotype, variable sequences identified by SEQ ID NO:6 and 7), also found to bind the activation peptide, were included for comparison. Moreover, anti-FX antibodies as disclosed in U.S. Pat. No. 9,334,331 (J327 and L404-k in said publication), corresponding to the anti-FX arm of ACE910); and more recently in WO2018/021450 (J327 D31H and JYL280 in said publication) and WO2018/098363 (BIIB-12-917 represented by SEQ ID NO:427 and 615 in said publication) are stated to be suitable for use as part of anti-FIX/anti-FX bispecific FVIII mimetic compounds were, furthermore, included for comparison.
Each compound was tested individually in a concentration range from 0-1000 nM, 0-2000 nM, 0-4000 nM or 0-8000 nM by pre-incubation with 1-1.5 nM human plasma-derived FIXa (Haematologic Technologies Inc, USA) and 500 μM 25:75 phosphatidyl serine:phosphatidyl choline phospholipid vesicles (Haematologic Technologies Inc, USA) in assay buffer (50 mM HEPES, 100 mM NaCl, 5 mM CaCl₂, 0.1% (w/v) PEG8000, 1 mg/mL bovine serum albumin, pH 7.3) for 10 minutes. The reaction was initiated by addition of human plasma-derived FX (Haematologic Technologies Inc, USA) to a final concentration of 100 nM and a reaction volume of 50 μL. Following 20 minutes activation at room temperature while agitated (1000 RPM), the reaction was quenched by addition of 25 μL quench buffer (50 mM HEPES, 100 mM NaCl, 60 mM EDTA, 0.1% (w/v) PEG8000, 1 mg/mL bovine serum albumin, pH 7.3). The amount of FXa generated was determined by addition of 25 μL 2 mM S-2765 chromogenic substrate for FXa (Chromogenix, Sweden) and chromogenic substrate conversion was followed by measuring absorbance at 405 nm for 10 minutes in a microplate reader. The observed change in 405 nm absorbance (ΔAbs405/min) was fitted to the quadratic binding equation (eq. 1) to obtain the peak stimulatory activity and EC50.
In the case of B1, the Kd is 83.2 nM.

With B2, the Kd stood at 63.9 nM.

Consider B3, for which the Kd was approximately 1400 nM.

As to B4, the Kd turned out to be 802 nM.

With B5, the Kd was 41.9 nM.

With B6, the Kd was determined as 66.1 nM.

For B7, the Kd is 72.3 nM.

The target of another assay is T1, FX activation peptide 12-mer …. Briefly: peptide ELISA. The method in brief: (§1)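 Nanobodies (FLAG-tagged) or IgG antibodies, 2 μg/mL, incubated 1 h on C-terminally biotinylated peptide captured via streptavidin, washing buffer pH 8.60 containing CaCl₂ and Tween 20. Read-out: HRP-conjugated secondary antibody with TMB colour development.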
In general terms: In an ELISA, binding on a coated surface is turned into a signal by an enzyme label.
As for B1, the “ELISA signal relative to background” value stood at 5.18.

Take B3: the “ELISA signal relative to background” value was determined as 2.06.

B4: the “ELISA signal relative to background” value was determined as 0.88 and the binding result is given as “no binding (tested: 2 µg/mL)”.

As for B7, the “ELISA signal relative to background” value worked out at 3.91.

A further assay addresses T2, FX activation peptide 12-mer …. Kind of assay: peptide ELISA. The gist of the method:
as §1
On to B1, for which the “ELISA signal relative to background” value amounted to 1.13.

As for B2, the “ELISA signal relative to background” value was 1.22.

Regarding B3, the “ELISA signal relative to background” value is 1.09.

For B4, the “ELISA signal relative to background” value was 0.71 and the binding result is “no binding (tested: 2 µg/mL)”.

For the molecule B5, the “ELISA signal relative to background” value was 0.85.

Regarding B6, the “ELISA signal relative to background” value came out at 0.87.

For B7, the “ELISA signal relative to background” value worked out at 0.79.

The target in a further assay is T3, FX activation peptide 12-mer …. Kind of assay: peptide ELISA. The method in brief:
as §1
For the molecule B1, the “ELISA signal relative to background” value is 1.05.

As for B2, the “ELISA signal relative to background” value stood at 1.24.

Consider B3, for which the “ELISA signal relative to background” value is 1.15.

On to B4, for which the “ELISA signal relative to background” value was determined as 0.94 and the binding result is “no binding (tested: 2 µg/mL)”.

For B5, the “ELISA signal relative to background” value is 0.9.

As for B6, the “ELISA signal relative to background” value is 0.8.

For B7, the “ELISA signal relative to background” value turned out to be 0.86.

Another assay has as its target T4, FX activation peptide 12-mer …. Briefly: peptide ELISA. The method in brief: as §1
Regarding B1, the “ELISA signal relative to background” value worked out at 0.95.

Turning to B2, the “ELISA signal relative to background” value worked out at 1.24.

For B3, the “ELISA signal relative to background” value was determined as 1.17.

Consider B4, for which the “ELISA signal relative to background” value was 0.79 and the binding result is given as “no binding (tested: 2 µg/mL)”.

For the molecule B5, the “ELISA signal relative to background” value came to 0.92.

B6: the “ELISA signal relative to background” value was found to be 0.84.

B7: the “ELISA signal relative to background” value stood at 0.83.

Another assay addresses T5, FX activation peptide 12-mer …. Kind of assay: peptide ELISA. The method in brief:
as §1
With B1, the “ELISA signal relative to background” value turned out to be 1.24.

For B2, the “ELISA signal relative to background” value worked out at 1.21.

As to B3, the “ELISA signal relative to background” value worked out at 1.1.

For the molecule B4, the “ELISA signal relative to background” value stood at 0.82 and the binding result is on record as “no binding (tested: 2 µg/mL)”.

Turning to B5, the “ELISA signal relative to background” value is 0.9.

As for B6, the “ELISA signal relative to background” value amounted to 0.73.

B7: the “ELISA signal relative to background” value is 0.84.

A further assay deals with T6, FX activation peptide 12-mer …. Briefly: peptide ELISA. The method in brief: as §1
With B1, the “ELISA signal relative to background” value was 0.99.

As to B2, the “ELISA signal relative to background” value came out at 1.24.

As for B3, the “ELISA signal relative to background” value was determined as 1.09.

With B4, the “ELISA signal relative to background” value was found to be 0.88 and the binding result is “no binding (tested: 2 µg/mL)”.

For the molecule B5, the “ELISA signal relative to background” value came to 0.93.

Turning to B6, the “ELISA signal relative to background” value turned out to be 0.84.

On to B7, for which the “ELISA signal relative to background” value was determined as 0.73.

A further assay concerns the target T7, FX activation peptide 12-mer …. Briefly: peptide ELISA. The gist of the method: as §1
With B1, the “ELISA signal relative to background” value was 1.05.

Turning to B2, the “ELISA signal relative to background” value was found to be 1.22.

With B3, the “ELISA signal relative to background” value came to 1.09.

On to B4, for which the “ELISA signal relative to background” value is 0.79 and the binding result is “no binding (tested: 2 µg/mL)”.

Turning to B5, the “ELISA signal relative to background” value is 0.93.

With B6, the “ELISA signal relative to background” value worked out at 0.89.

In the case of B7, the “ELISA signal relative to background” value worked out at 0.76.

In another assay the target is T8, FX activation peptide 12-mer …. Briefly: peptide ELISA. The method in brief:
as §1
As for B1, the “ELISA signal relative to background” value amounted to 1.05.

Consider B2, for which the “ELISA signal relative to background” value was found to be 1.21.

For the molecule B3, the “ELISA signal relative to background” value is 1.17.

For B4, the “ELISA signal relative to background” value turned out to be 0.79 and the binding result is “no binding (tested: 2 µg/mL)”.

For B5, the “ELISA signal relative to background” value was 0.82.

As to B6, the “ELISA signal relative to background” value amounted to 0.69.

Turning to B7, the “ELISA signal relative to background” value turned out to be 0.79.

A further assay has as its target T9, human plasma-derived Factor X zymogen. Kind of assay: SPR steady state, Nb captured by anti-His mAb, FX injected. The procedure:
Binding of purified anti-FX Nanobodies (Nb) to human plasma-derived FX (Haematologic Technologies Inc, USA) was probed by Surface Plasmon Resonance (SPR) (Biacore T200). Briefly, anti-His mAb (MAB050 from R&D systems) was immobilised on a CM4 sensor chip using standard amine coupling chemistry. Anti-FX Nanobodies (10 nM), according to Table 3, was injected at a flow rate of 10 μL/min for 1 minute. Subsequently 4096, 1024, 256, 64, 16, 4, and 0 nM of FX were injected at a flow rate of 30 μL/min for 4 minutes to allow for binding to anti-FX Nb followed by a 5 minutes running buffer (10 mM HEPES, 150 mM NaCl, 5 mM CaCl₂, 0.05% (v/v) Surfactant P20, 1 mg/mL bovine serum albumin, pH 7.4) injection allowing dissociation from anti-FX Nanobody®. The running buffer was also for dilution of anti-FX Nb and FX samples. Regeneration of the chip was achieved using a regeneration buffer consisting of 3M MgCl₂, 30 seconds contact time, and a 30 μL/min flow rate. The binding data were collected at 25° C. and were analysed according to a 1:1 model using BiaEvaluation 4.1 supplied by the manufacturer (Biacore AB, Uppsala, Sweden).
Therefore, the reported KD values are determined based on steady state analysis. The strongest binder identified is Nb702C12, while the others Nanobodies® tested binds FX with a slightly higher KD and lower Rₘₐₓ.
Molecule B5 returned a Kd of 960 nM.

As to B6, the Kd is 2400 nM.

B7 had a Kd of 2100 nM.

The target in the next assay is human activated Factor X (human, UniProt P00742 41-179; P00742 235-488). Kind of assay: cell-based or functional assay.
human activated Factor X, sequence (P00742 41-179, chain 1 of 2): as the sequence (P00742 41-179, chain 1 of 2) above
human activated Factor X, sequence (P00742 235-488, chain 2 of 2): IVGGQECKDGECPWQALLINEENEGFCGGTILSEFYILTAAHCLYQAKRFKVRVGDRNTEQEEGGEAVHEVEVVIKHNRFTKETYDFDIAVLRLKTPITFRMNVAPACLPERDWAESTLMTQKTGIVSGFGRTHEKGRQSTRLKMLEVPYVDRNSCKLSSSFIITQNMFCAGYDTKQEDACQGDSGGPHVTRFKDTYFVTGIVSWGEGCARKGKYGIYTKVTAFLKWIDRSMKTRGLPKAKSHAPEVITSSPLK
Take B1: the “FXa amidolytic activity (relative to free FXa, fold)” value stood at 1.11 fold.

As for B2, the “FXa amidolytic activity (relative to free FXa, fold)” value came to 1.01 fold.

On to B3, for which the “FXa amidolytic activity (relative to free FXa, fold)” value was found to be 1.09 fold.

Take B5: the “FXa amidolytic activity (relative to free FXa, fold)” value amounted to 1.06 fold.

Turning to B6, the “FXa amidolytic activity (relative to free FXa, fold)” value came out at 1.05 fold.

B7: the “FXa amidolytic activity (relative to free FXa, fold)” value is 1.06 fold.
